We go through 3 molecules from publication PMC5039489.

A word on the Kd: it is a measure of binding affinity in units of concentration. Lower therefore signals a tighter complex.

Assay [1] addresses CK2α-DBCO545 (human protein kinase CK2α subunit with pAzF at position 239, coupled to DBCO545) (human) (UniProt P68400).
Assay [2] concerns the target CK2α-DBCO-Sulfo-Cy5 (human protein kinase CK2α subunit with pAzF at position 239, coupled to DBCO-Sulfo-Cy5) (human) (UniProt P68400). Kind of assay: MST; CK2α-DBCO-Sulfo-Cy5 constant (65 nM), αS1-casein titrated from 0.76 nM to 12.50 µM; kinase buffer (50 mM Tris/HCl pH 8.5, 25 mM NaCl, 20 mM MgCl2) with 0.1% Tween-20; samples incubated at 37 °C for 90 min; recorded at 30 °C; Monolith NT.115; three independent experiments.

Assay [3] deals with CK2β autotransporter fusion protein (CK2β-AT), displayed on the surface of E. coli by Autodisplay (human). Kind of assay: flow cytometry on cells; E. coli BL21(DE3) cells displaying the protein by Autodisplay (OD578 = 1, 20 µL) incubated with 10 µL purified CK2α-DBCO545 for 60 min at 37 °C, washed three times with PBS; 561 nm laser; 50,000 cells. (A flow cytometer gives signals particle by particle.)

On to “purified regulatory CK2β-subunit (from UniProt P67870 1-215) (natural protein)”, for which the phosphorylation activity on the substrate peptide … by capillary electrophoresis: CK2α-DBCO545 with purified CK2β added in a 1:1 ratio against CK2α-DBCO545 alone in assay [1] turned out to be 8 fold.

B1: human αS1-casein (natural protein)
chain: RPKLPLRYPERLQNPSESSEPIPLESREEYMNGMNRQRNILREKQTDEIKDTRNESTQNCVVAEPEKMESSISSSSEEMSLSKCAEQFCRLNEYNQLQLQAAHAQEQIRRMNENSHVQVPFQQLNQLAAYPYAVWYYPQIMQYVPFPPFSDISNPTAHENYEKNNVMLQW
B1 yielded a Kd in assay [2] of 631 nM.

B2: CK2α-DBCO545 (human protein kinase CK2α subunit with pAzF at position 239, coupled to DBCO545) (enzyme)
chain: MSGPVPSRARVYTDVNTHRPREYWDYESHVVEWGNQDDYQLVRKLGRGKYSEVFEAINITNNEKVVVKILKPVKKKKIKREIKILENLRGGPNIITLADIVKDPVSRTPALVFEHVNNTDFKQLYQTLTDYDIRFYMYEILKALDYCHSMGIMHRDVKPHNVMIDHEHRKLRLIDWGLAEFYHPGQEYNVRVASRYFKGPELLVDYQMYDYSLDMWSLGCMLASMIFRKEPFFHGHDN
modifications: para azidophenylalanine (pAzF) at 239, coupled to dibenzylcyclooctyne-fluor 545 (DBCO545) by SPAAC click reaction
Molecule B2 had a mean fluorescence intensity (mF) in assay [3] of 3800.
